Reference: the nanobody polyreactivity screen of Harvey et al. (2022)

Test: yeast display, Sf9 membrane polyspecificity reagent, FACS + sequencing; frameworks hold sequencing errors
Outline: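 A synthetic nanobody library was expressed on Saccharomyces cerevisiae BJ5465 by galactose induction for 36–48 hours. The library was stained for 1 hour at 4 °C with 10% biotinylated, detergent-solubilized Sf9 membrane reagent and enriched with streptavidin microbeads before FACS. Low and high (top ~1%) gates were set on anti-HA fluorescence for expression and streptavidin fluorescence for reagent binding, and each polyreactivity label reflects the gate of origin.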

| Sequence | polyreactivity (PSR sort gate) |
| --- | --- |
| QVQLVESGGGLVQAGGSLRLSCAASGRTFGRNGMGWYRQAPGKERELVAAISIGDSTTYADSVKGRFTISRDNAKNTVYLQMNSLKPEDTAVYYCAAEIERYPVWEYRGKYDYWGQGTQVTVSS | low polyreactivity |
| QVQLVESGGGLVQAGGSLRLSCAASGRTFGRYAMGWYRKAPGKERELVAAISCSGGSTYYADSVKGRFTISRDNAKNTVYLQMNSLKPEDTAVYYCAADWRQGLWYGYYYWGQGTQVTVSS | low polyreactivity |
| QVQLVESGGGLVQAGGSLRLSCAASGRTFGRYAMGWYRQAPGKERELVADITGGGSTNYADSVKGRFTISRDNAKNTVYFQMNSLKPEDTAVYYCNAGILSRWVRKYYYWGQGTQVTVSS | low polyreactivity |
| QVQLVESGGGLVQAGGSLRLSCAASGRTFGRYAMGWYRQAPGKERELVARIRTSGGRTYYADSVKGRFTISRDIAKNTVYLLMNSLNPEDTAVYYCGTSSQPWYYWSTQGDDFWGQGTQVSVSS | low polyreactivity |
| QVQLVESGGGLVQAGGSLRLSCAASGRTFGRYAMVWSRQAPGKERELVAAITRGGGSTYYADSVKGRFTISRDNAKYTVYLQMNSLKPEDTAVYYCAARNFRSPYGYDYWGQGTQVTVSS | high polyreactivity |
| QVQLVESGGGLVQAGGSLRLSCAASGRTFGRYPMGCYRQAPGKERELVAAIRYSGSSTYYADSVKGRFTISRDNAKNTVYLQMYSLKPEDTAVYYCAKRYYGKDYWGQGSQVTVSS | high polyreactivity |
| QVQLVESGGGLVQAGGSLRLSCAASGRTFGSNAMGWYRQAPGKERELVAAISRVGSTYYADSVNGRFTISRDNAMNTVYLQMNSLKPEDTAVYYCPYDYWGQGTQVTVSS | low polyreactivity |
| QVQLVESGGGLVQAGGSLRLSCAASGRTFGSNAMGWYRQAPGKERELVAAITSGGGTYYADSVKGRFTISRDNAKNTVYLQMNSLKPEDTAVYYCNKLGTSFRRDYGSWGQGTQVTVSS | low polyreactivity |
| QVQLVESGGGLVQAGGSLRLSCAASGRTFGSYAMAWYRQAPGKERELVAAITWSGTGTYYADSVKGRFTISRDNAKNTVYLQMKSLKPEVTAVYYCAARYASGRRGEYWGQGTQVTVSS | high polyreactivity |
| QVQLVESGGGLVQAGGSLRLSCAASGRTFGSYAMGWNRPATRLERELVAAISDGGSTNYADSVKGRFTISRDNAKITVYLQMNSLTPEDTAVYYCAAEIFFAVFRFYYSGQGTQVTVSS | low polyreactivity |
| QVQLVESGGGLVQAGGSLRLSCAASGRTFGSYAMGWYRQAPGKERELVAGISWSGGITYYADSVKGRFTISRDNAKNTVYLQMNSLKPEDTAVYYCAASPRRDENAGRVRLYYWGQGTQVTVSS | high polyreactivity |
| QVQLVESGGGLVQAGGSLRLSCAASGRTFGTNALGWYRQAPGKERELVASIDLSADSTYYADSVKGRFTISRDNAKKTVYLQMNSLKPEDTAVYYCNKDGYPWPPNLDYWGQGTQVTVSS | low polyreactivity |
| QVQLVESGGGLVQAGGSLRLSCAASGRTFGTNTMGWYRQAPGKERELVAAIRRGGGTNYADSVKGRFTISRDNAKNTVYLQMNSLKPEDTAVYYCAAVRWNTGVGYYYWGQGTQVTVSS | high polyreactivity |
| QVQLVESGGGLVQAGGSLRLSCAASGRTFGVNAMGWYRQAPGKEREFVAAITWSGGSTYYADSVKGRFTISRDNAKNTVYLQMISLKPEDTAVYYCAAVQWRYDGSFTGYGYWGQGTQVTVSS | low polyreactivity |
| QVQLVESGGGLVQAGGSLRLSCAASGRTFGVNAMGWYRQAPGKERELVARIRVSGGRTYYADSVKGRFTISRDNAKNTVYLQMNSLKPEDTAVYYCNAGYTYNRVIWPYYYWGQGTQVTVSS | high polyreactivity |
| QVQLVESGGGLVQAGGSLRLSCAASGRTFGVNAMGWYRQAPGKERELVATIRRGGSTYYADSVKGRFTISRDNAKNTVYLQMNSLKPEDTAVYYCNASHVTWNRKYDYWGQGTQVNVSS | low polyreactivity |

| Sequence | polyreactivity (PSR sort gate) |
| --- | --- |
| QVQLVESGGGLVQAGGSLRLSCAASGRTFGVYALGWYRQAPRKERELVAGIRWRGGSTYYADSVKGRFTISRDNAKNTVYLQMNSLKPEDTAVYYCAADVYLVKYDYWGQGTQVTVSS | low polyreactivity |
| QVQLVESGGGLVQAGGSLRLSCAASGRTFGVYAMGWYRQAPGKERELVATIRTTGSTNYADSVKGRFTISRDNAKYTVYLQMNSVKTEDTAVYYCAARLRQSKYYPYTTFTYDYWGQGTQVTVSS | high polyreactivity |
| QVQLVESGGGLVQAGGSLRLSCAASGRTFGVYAMGWYRQAPWKERELVAGIRWRGGSTYYADSVKGRFTISRDNAKNTVYLQMNSLKPEDTAVYYCAADVYLVKYDYWGQGTQVTVSS | low polyreactivity |
| QVQLVESGGGLVQAGGSLRLSCAASGRTFGWNAMGWYRQAPGKERELVASIRYSGGTTYYADSVKGRFTISRDNAKNTVYLQMKSLKPEDTAVYYCNSAYYNTGATRPYGYGYWGQGTQVTVSS | low polyreactivity |
| QVQLVESGGGLVQAGGSLRLSCAASGRTFGWNARGWYRQAPGKEKELVAAISWSGTNTYYADSVKGRFTISRDNAKNTVYLQMNSLKPEDTAVYYCAARDWTGSWNGYWSCEYNYWGQGTQVTGSS | low polyreactivity |
| QVQLVESGGGLVQAGGSLRLSCAASGRTFGWYAMGSYRQAPGKERELVAAITSGTSTYYADSVKGRFTISRDNAKYTVYLQMNSRKPEDTAVYYCAVDRGISVGYTRFDYWGQGTQVTVSS | low polyreactivity |
| QVQLVESGGGLVQAGGSLRLSCAASGRTFGWYAMGWYRQAPGKEREFVAVISRSGTNTYYADSVKGRFTISRDNAKNTVYLQMNSLKPEDTAVYYCATYWSLSQSRQGDYWGQGTQVTVSS | high polyreactivity |
| QVQLVESGGGLVQAGGSLRLSCAASGRTFGWYAMGWYRQAPGKERELVAAISTRGTRTYYADSVKGRFTISRDNAKNTVYLQMNSLKPEDTAVYYCNAKRRAVTTAHGIPEEDYWGQGTQVTVSS | high polyreactivity |
| QVQLVESGGGLVQAGGSLRLSCAASGRTFGWYTMGWYRPAPGKERELVAAISRSGTSTYYADSVKGRFTISRDNAKNTVYLQMNSLKQEDTAVYYCAQYVNPRGGNYWGQGTQVTVSS | high polyreactivity |
| QVQLVESGGGLVQAGGSLRLSCAASGRTFGYNAMGWYRKAPGKEREFVAAISWSGGRTYYADSVKGRFTISRDNAKNTVYLQMNSLKPEDTAVYYCAAGFGDGPGNGYYTRYSWDDDYWGQGTQVTVSS | low polyreactivity |
| QVQLVESGGGLVQAGGSLRLSCAASGRTFGYNAMGWYRQAPGKERELVAAITIGGSTNYADSVNGRFTISRDNAKNTVYLQMNSLKPEDTAVYYCAAYDTLLYWVEFYYWGQGTQVTVSS | low polyreactivity |
| QVQLVESGGGLVQAGGSLRLSCAASGRTFGYNAMGWYRQAPGKERELVASISYRGGSTYYADSVKGRFTISRDNAKNTVYLQMNSLKPEDTAVYYCNKYYVWREYYWGQGTQVTVSS | high polyreactivity |
| QVQLVESGGGLVQAGGSLRLSCAASGRTFGYNAMGWYRQAPGKERELVATITWNGGRTYYADSVKGRFTISRDNAKNTVYLQMNSLKPEDTAVYYCAKGYPIIGRHGHWGQGTQVTVSS | high polyreactivity |
| QVQLVESGGGLVQAGGSLRLSCAASGRTFGYNAMGWYRQAPGKERQLVAAINWSGASTYYADSVKGRFTISRDNAKNTVYLQMNSLKPEDTAVYYCAADYSYIYGFDYWGQGTQVTVSS | low polyreactivity |
| QVQLVESGGGLVQAGGSLRLSCAASGRTFGYNAMGWYRQAPGKESELVAVISRGSRTYYADSVKGRFTISRDNAKNTVYLQMNSLKPEDTAVYYCAADYEYSGYGYWGQGTQVTVSS | high polyreactivity |
| QVQLVESGGGLVQAGGSLRLSCAASGRTFGYNTMGWYRQAPGKERELVAVITQGVDITYYADSVKGRFTISRDNAKNTVYLQMNSLKPEDTAVYYCNTAGQDAEYDYWGQGTQVTVSS | low polyreactivity |
